From ChEMBL document CHEMBL1156423

Tested on: O=C(O)P(=O)(O)O
Settings: Human immunodeficiency virus 1
Description: Inhibition of HIV1 reverse transcriptase E89K mutant mediated single strand incorporation into DNA at +16 position using polypurine tract PPT+16/PPT57 template after 7 mins by gel based assay

## Human immunodeficiency virus type 1 reverse transcriptase (Human immunodeficiency virus 1) (from UniProt Q72547) E89K
  kcat/Km: 6000 M⁻¹ s⁻¹
